Measurements published in publication PMC11931385, “Structural and functional analysis of cancer-associated missense variants in the retinoblastoma protein pocket domain” (The Journal of Biological Chemistry, 2025).
Where a chain is given by its changes, count along the chain named. Numbers in names are those of the source. No end group written: not given here. TMR = tetramethyl rhodamine dye

T1: Rb^P D697E (human, UniProt P06400 380-788, D697E)
T1 construct: also called variant 62
T1 sequence (looked up): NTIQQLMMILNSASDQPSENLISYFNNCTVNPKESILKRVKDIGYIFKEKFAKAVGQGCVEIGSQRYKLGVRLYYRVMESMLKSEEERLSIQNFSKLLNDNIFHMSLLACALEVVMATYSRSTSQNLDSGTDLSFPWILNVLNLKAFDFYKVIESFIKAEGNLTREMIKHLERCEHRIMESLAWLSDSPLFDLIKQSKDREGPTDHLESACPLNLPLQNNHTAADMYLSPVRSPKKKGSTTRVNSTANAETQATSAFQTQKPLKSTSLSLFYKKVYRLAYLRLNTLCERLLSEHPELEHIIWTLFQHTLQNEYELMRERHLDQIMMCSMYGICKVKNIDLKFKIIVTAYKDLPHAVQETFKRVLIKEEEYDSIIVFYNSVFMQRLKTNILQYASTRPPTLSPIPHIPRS

T2: Rb^P L572I (human, UniProt P06400 380-788, L572I)
T2 construct: also called variant 31
T2 sequence (looked up): T1 sequence (looked up) with L193I, E318D

T3: Rb^P S474R (human, UniProt P06400 380-788, S474R)
T3 construct: also called variant 13
T3 sequence (looked up): T1 sequence (looked up) with S95R, E318D

T4: Rb^P S671F (human, UniProt P06400 380-788, S671F)
T4 construct: also called variant 53
T4 sequence (looked up): T1 sequence (looked up) with S292F, E318D

T5: Rb^P K548N (human, UniProt P06400 380-788, K548N)
T5 construct: also called variant 26
T5 sequence (looked up): T1 sequence (looked up) with K169N, E318D

B1: TMR-E2F1^TD, peptide of the E2F1 transactivation domain (peptide)
peptide: {TMR}-GEGIRDLFDCDFGDLTPLD
notes: also called E2F^TD; source: synthetic peptide, bought: GenScript
B2: TMR-E7^LxCxE, LxCxE peptide of the E7 oncoprotein from HPV (peptide)
peptide: DLYCYEQLN
modifications: also: TMR label, position not given here
notes: source: synthetic peptide, bought: GenScript

Columns and labels:
Test in all cases: fluorescence polarisation; 25 °C; unlabeled Rb^P titrated against 1.5 nM TMR-E2F1^TD or 7.5 nM TMR-E7^LxCxE; 25 mM Tris pH 8.0, 200 mM NaCl, 1 mM DTT, 0.1% Tween-20; 2 min incubation; quadratic fit; apparent Kd for the variants, Kd for WT
Conditions in all cases: both partners purified
Rb^P D697E = molecular target: T1, Rb^P D697E
Rb^P L572I = molecular target: T2, Rb^P L572I
Rb^P S474R = molecular target: T3, Rb^P S474R
Rb^P S671F = molecular target: T4, Rb^P S671F
Rb^P K548N = molecular target: T5, Rb^P K548N

| Binder | Kd (Rb^P D697E) [nM] | Kd (Rb^P L572I) [nM] | Kd (Rb^P S474R) [nM] | Kd (Rb^P S671F) [nM] | Kd (Rb^P K548N) [nM] |
| --- | --- | --- | --- | --- | --- |
| B1 | 29 | 37 | 365 | 24 | 133 |
| B2 | 9 | 4 | 5 | 9 | 6 |
